Results on one molecule are retold here after patent US20040166544A1 (published 2004).

By Kd is commonly meant the constant that tells how readily two partners part at equilibrium. A low value points to a tighter complex. Usually koff stands for the first-order rate constant of dissociation. A high value points to fast dissociation. In general, kon refers to the rate constant with which the complex forms. Read a high kon as fast association. One may read the IC50 as the concentration that gives 50% inhibition. Low readings indicate higher potency, high ones lower potency.

The target in assay [1] is T1, c-Met/Fc Chimera (R&D Systems, catalog # 358-MT-100) (human, UniProt P08581 25-932).
T1 construct: extracellular domain; Bought reagent; also called human c-Met-Fc fusion protein; recombinant c-Met protein; Fc part of the bought chimera not given
T1 sequence (P08581 25-932, change not shown): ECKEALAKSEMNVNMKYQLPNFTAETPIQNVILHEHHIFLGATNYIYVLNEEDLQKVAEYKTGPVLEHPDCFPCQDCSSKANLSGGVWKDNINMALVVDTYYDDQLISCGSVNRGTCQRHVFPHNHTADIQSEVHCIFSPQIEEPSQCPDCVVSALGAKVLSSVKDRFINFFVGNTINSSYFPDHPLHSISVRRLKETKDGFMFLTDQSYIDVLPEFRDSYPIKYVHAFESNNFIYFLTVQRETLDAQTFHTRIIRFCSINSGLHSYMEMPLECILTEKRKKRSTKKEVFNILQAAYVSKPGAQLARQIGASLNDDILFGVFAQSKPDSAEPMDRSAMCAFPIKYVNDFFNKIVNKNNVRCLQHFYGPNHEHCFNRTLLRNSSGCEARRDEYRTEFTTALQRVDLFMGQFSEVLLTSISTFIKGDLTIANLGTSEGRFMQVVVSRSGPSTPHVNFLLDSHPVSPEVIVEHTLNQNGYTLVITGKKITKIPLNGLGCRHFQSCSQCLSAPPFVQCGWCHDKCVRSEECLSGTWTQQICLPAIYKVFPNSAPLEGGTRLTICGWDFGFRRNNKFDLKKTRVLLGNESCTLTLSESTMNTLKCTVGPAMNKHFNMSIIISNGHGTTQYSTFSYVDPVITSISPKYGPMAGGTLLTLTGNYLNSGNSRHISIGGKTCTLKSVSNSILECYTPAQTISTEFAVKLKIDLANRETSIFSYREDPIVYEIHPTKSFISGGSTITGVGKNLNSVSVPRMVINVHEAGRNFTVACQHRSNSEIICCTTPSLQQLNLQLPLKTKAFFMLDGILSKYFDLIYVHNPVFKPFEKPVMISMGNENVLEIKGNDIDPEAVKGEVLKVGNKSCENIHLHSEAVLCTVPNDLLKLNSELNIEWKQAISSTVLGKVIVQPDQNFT
Briefly: SPR (BIAcore), c-Met-Fc captured on protein A CM5 chip, Fab as analyte, 1:1 Langmuir model. The method, then: For the binding study of Fab fragments derived from antibodies of the invention, a high density (>2 ng/mm²) of protein A was first immobilized covalently onto a CM5 sensorchip using EDC/NHS amine coupling chemistry [. The flow cell containing c-Met-Fc captured by the protein A was used as the positive control while a flow cell containing only protein A was used as the negative control. The Fab sample to be analyzed was as above for antibodies to form a set of solutions with concentration ranged from 3.9 nM to 500 nM. The HEPES buffer used as the running solution was set at a flow rate of 50 ul/min. For each cycle of binding study, low density (<1 ng/mm²) of c-Met-Fc was captured first onto the positive flow cell. Each sample solution was then injected over the two flow cells (one negative and one positive in series) for three minutes followed by 5 minutes of dissociation. The flow cells were then regenerated with 4.5M MgCl₂ for one minute to remove the bound c-Met-Fc/Fab complexes for the next cycle of binding. The net sensorgrams (subtraction of sensorgrams from the negative control flow cell as well as that from the buffer blank) obtained from the set of samples were fitted simultaneously in a global fitting using a Langmuir 1:1 binding model of the BIAevaluation program equipped with the system. The on-rate (Kₐ), off-rate (Kd) and binding affinity (KD) were determined from the fitting with KD equal to kd/kₐ.
Background: In SPR one partner is held on a chip, and binding of the other changes the refractive index at the surface.

For assay [2], the target named is T1, c-Met/Fc Chimera (R&D Systems, catalog …). Briefly: competition ELISA: displacement of biotinylated HGF from plate-coated c-Met/Fc chimera, Fab, n = 2. As for the experimental part: (§1) 96-well Fluoronunc plates were coated with 50 ul of 0.5 ug/ml c-Met/Fc Chimera (R&D Systems, Minneapolis Minn., catalog # 358-MT-100) in phosphate buffered saline (PBS) and the plates were incubated overnight at room temperature. Wells were washed three times with washing buffer (PBS+0.1% Tween 20), blotting the plates on paper towels between each wash. Nonspecific binding in the wells was blocked by the addition of 250 ul of blocking buffer (3.0% milk (Carnation) in PBS) to each well and incubated at room temperature for two hours.
The c-Met antibodies were diluted in reagent buffer (PBS, 0.5% BSA, 0.05% Tween-20) and titrations were performed in 96 well polypropylene plates. Biotinylated HGF (0.4 ug/ml) (R&D Systems, biotinylated with Pierce #21335 as per manufacturer's instructions) was added to each well. 50 ul of the dilutions were transferred into the Fluoronunc plates containing human c-Met-Fc fusion protein (R&D Systems, #) and the plates were incubated for two hours at room temperature. The plates were washed three times with wash buffer and blotted onto paper towels. 50 ul of europium-labeled Streptavidin (Wallac Perkin Elmer) diluted 1:1000 in Delfia assay buffer (Wallac Perkin Elmer) was added per well and the plates were incubated for one hour at room temperature. The plates were washed seven times with Delfia wash buffer (Tris buffered saline (TBS) supplemented with 0.1% Tween-20) and blotted onto paper towels. 100 ul Delfia enhancer solution (Wallac Perkin Elmer) was added to each well and the plates incubated for 5 minutes on a plate shaker at room temperature. Plates were read on a fluorescence plate reader and analyzed using GraphPad Prism software (GraphPad Software, San Diego, Calif.).
C-Met antibodies 1A3.3.13 (#HB-11894, ATCC Hybridoma) and 5D5.11.6 (#HB-11895, ATCC Hybridoma) were used as positive controls. MOPC-21 (#M-7894, Sigma) was used as an IgG isotype control and HB-94 (#HB-94, ATCC Hybridoma) was converted into a Fab fragment and used as a Fab isotype control. NK4-Elastase is a kringle to kringle 4 fragment resulting from digesting intact HGF purified from S-114 cells with elastase (Date et al., FEBS Lett. 420:1-6 ([…]).

Assay [3] shares this target. Briefly: europium (DELFIA) ligand competition ELISA: biotinylated HGF binding to plate-coated c-Met/Fc Chimera, Fab titrated. The method, then: as §1
The c-Met antibodies were diluted in reagent buffer (PBS, 0.5% BSA, 0.05% Tween-20) and titrations were performed in 96 well polypropylene plates. Biotinylated HGF (0.4 ug/ml) (R&D Systems, biotinylated with Pierce #21335 as per manufacturer's instructions) was added to each well. 50 ul of the dilutions were transferred into the Fluoronunc plates containing human c-Met-Fc fusion protein (R&D Systems, #) and the plates were incubated for two hours at room temperature. The plates were washed three times with wash buffer and blotted onto paper towels. […] Plates were read on a fluorescence plate reader and analyzed using GraphPad Prism software (GraphPad Software, San Diego, Calif.).

B1: c-Met 11994 Fab (Fab, V domains shown)
VH: QVQLQESGPGLVKPSGTLSLTCAVSGGSISTSDWWSWVRRPPGKGLEWIGEIYHSGSTNYHPSLKSRVTISLDKSKNQFSLKLSSVTAADTAVYYCAREGGHSGSYPLDYWGKGTLVTVSS
VL: NFMLTQPHSVSESPGKTVTISCTRSSGSIASNYVQWYQQRPGSSPTTVIYEDNQRPSGVPDRFSGSIDSSSNSASLTISGLKTEDEADYYCQSYDSSNQGVVFGGGTKLTVLG
notes: VH and VL limits counted as for the IgG; also called 11994-50; Fab fragment derived from c-Met antibody 11994
Regarding B1, in assay [1], binding was characterised by a dissociation constant (Kd) of 13.8 nM, the koff came to 0.00528 s⁻¹ and the kon was determined as 383000 M⁻¹ s⁻¹. The molecule further registered an IC50 in assay [2] of 24.6 nM. For the same molecule, the “IC50 (read off the curve)” value in assay [3] is about 3 nM.
